# Measured values from patent US12679878B2, “CRF2 receptor agonists and their use in therapy” (SANOFI, priority 2020, dated 2026).
# Starred links: 1 amine or outer side, 2 acyl side, 3 side chain; linkers in the order of their positions; H or OH if unused. Non-standard residues stand in square brackets, D forms with d. Groups on a side chain read outwards from the residue. No end group written: not given here. *: point of attachment. C18 diacid = O=C(O)CCCCCCCCCCCCCCCCC(=O)*; γGlu = O=C(O)[C@H](CCC(=O)[*:2])N[*:1]; AEEA = NCCOCCOCC(=O)O; Aib = CC(C)(N)C(=O)O
# B1: peptide of SEQ ID NO: 142 (peptide)
# peptide: IVLSLD[dV]PIKLK([AEEA-AEEA-γGlu-C18 diacid])QILLEQARQK[Aib]QREQAEKNKRILERV-NH2
# modifications: N-terminus assumed
# SMILES: CC[C@H](C)[C@H](N)C(=O)N[C@H](C(=O)N[C@@H](CC(C)C)C(=O)N[C@@H](CO)C(=O)N[C@@H](CC(C)C)C(=O)N[C@@H](CC(=O)O)C(=O)N[C@@H](C(=O)N1CCC[C@H]1C(=O)N[C@H](C(=O)N[C@@H](CCCCN)C(=O)N[C@@H](CC(C)C)C(=O)N[C@@H](CCCCNC(=O)COCCOCCNC(=O)COCCOCCNC(=O)CC[C@H](NC(=O)CCCCCCCCCCCCCCCCC(=O)O)C(=O)O)C(=O)N[C@@H](CCC(N)=O)C(=O)N[C@H](C(=O)N[C@@H](CC(C)C)C(=O)N[C@@H](CC(C)C)C(=O)N[C@@H](CCC(=O)O)C(=O)N[C@@H](CCC(N)=O)C(=O)N[C@@H](C)C(=O)N[C@@H](CCCNC(=N)N)C(=O)N[C@@H](CCC(N)=O)C(=O)N[C@@H](CCCCN)C(=O)NC(C)(C)C(=O)N[C@@H](CCC(N)=O)C(=O)N[C@@H](CCCNC(=N)N)C(=O)N[C@@H](CCC(=O)O)C(=O)N[C@@H](CCC(N)=O)C(=O)N[C@@H](C)C(=O)N[C@@H](CCC(=O)O)C(=O)N[C@@H](CCCCN)C(=O)N[C@@H](CC(N)=O)C(=O)N[C@@H](CCCCN)C(=O)N[C@@H](CCCNC(=N)N)C(=O)N[C@H](C(=O)N[C@@H](CC(C)C)C(=O)N[C@@H](CCC(=O)O)C(=O)N[C@@H](CCCNC(=N)N)C(=O)N[C@H](C(N)=O)C(C)C)[C@@H](C)CC)[C@@H](C)CC)[C@@H](C)CC)C(C)C)C(C)C
# B2: peptide of SEQ ID NO: 157 (peptide)
# peptide: Ac-IVLSLD[dV]PIKLK([AEEA-AEEA-γGlu-C18 diacid])QILLEQARQK[Aib]QREQAEKNKQILEQV-NH2
# SMILES: CC[C@H](C)[C@H](NC(C)=O)C(=O)N[C@H](C(=O)N[C@@H](CC(C)C)C(=O)N[C@@H](CO)C(=O)N[C@@H](CC(C)C)C(=O)N[C@@H](CC(=O)O)C(=O)N[C@@H](C(=O)N1CCC[C@H]1C(=O)N[C@H](C(=O)N[C@@H](CCCCN)C(=O)N[C@@H](CC(C)C)C(=O)N[C@@H](CCCCNC(=O)COCCOCCNC(=O)COCCOCCNC(=O)CC[C@H](NC(=O)CCCCCCCCCCCCCCCCC(=O)O)C(=O)O)C(=O)N[C@@H](CCC(N)=O)C(=O)N[C@H](C(=O)N[C@@H](CC(C)C)C(=O)N[C@@H](CC(C)C)C(=O)N[C@@H](CCC(=O)O)C(=O)N[C@@H](CCC(N)=O)C(=O)N[C@@H](C)C(=O)N[C@@H](CCCNC(=N)N)C(=O)N[C@@H](CCC(N)=O)C(=O)N[C@@H](CCCCN)C(=O)NC(C)(C)C(=O)N[C@@H](CCC(N)=O)C(=O)N[C@@H](CCCNC(=N)N)C(=O)N[C@@H](CCC(=O)O)C(=O)N[C@@H](CCC(N)=O)C(=O)N[C@@H](C)C(=O)N[C@@H](CCC(=O)O)C(=O)N[C@@H](CCCCN)C(=O)N[C@@H](CC(N)=O)C(=O)N[C@@H](CCCCN)C(=O)N[C@@H](CCC(N)=O)C(=O)N[C@H](C(=O)N[C@@H](CC(C)C)C(=O)N[C@@H](CCC(=O)O)C(=O)N[C@@H](CCC(N)=O)C(=O)N[C@H](C(N)=O)C(C)C)[C@@H](C)CC)[C@@H](C)CC)[C@@H](C)CC)C(C)C)C(C)C
# B3: peptide of SEQ ID NO: 158 (peptide)
# peptide: Ac-IVLSLD[dV]PIKLK([AEEA-AEEA-γGlu-C18 diacid])QILLEQERQK[Aib]QREQAEKNKQILEQV-NH2
# SMILES: CC[C@H](C)[C@H](NC(C)=O)C(=O)N[C@H](C(=O)N[C@@H](CC(C)C)C(=O)N[C@@H](CO)C(=O)N[C@@H](CC(C)C)C(=O)N[C@@H](CC(=O)O)C(=O)N[C@@H](C(=O)N1CCC[C@H]1C(=O)N[C@H](C(=O)N[C@@H](CCCCN)C(=O)N[C@@H](CC(C)C)C(=O)N[C@@H](CCCCNC(=O)COCCOCCNC(=O)COCCOCCNC(=O)CC[C@H](NC(=O)CCCCCCCCCCCCCCCCC(=O)O)C(=O)O)C(=O)N[C@@H](CCC(N)=O)C(=O)N[C@H](C(=O)N[C@@H](CC(C)C)C(=O)N[C@@H](CC(C)C)C(=O)N[C@@H](CCC(=O)O)C(=O)N[C@@H](CCC(N)=O)C(=O)N[C@@H](CCC(=O)O)C(=O)N[C@@H](CCCNC(=N)N)C(=O)N[C@@H](CCC(N)=O)C(=O)N[C@@H](CCCCN)C(=O)NC(C)(C)C(=O)N[C@@H](CCC(N)=O)C(=O)N[C@@H](CCCNC(=N)N)C(=O)N[C@@H](CCC(=O)O)C(=O)N[C@@H](CCC(N)=O)C(=O)N[C@@H](C)C(=O)N[C@@H](CCC(=O)O)C(=O)N[C@@H](CCCCN)C(=O)N[C@@H](CC(N)=O)C(=O)N[C@@H](CCCCN)C(=O)N[C@@H](CCC(N)=O)C(=O)N[C@H](C(=O)N[C@@H](CC(C)C)C(=O)N[C@@H](CCC(=O)O)C(=O)N[C@@H](CCC(N)=O)C(=O)N[C@H](C(N)=O)C(C)C)[C@@H](C)CC)[C@@H](C)CC)[C@@H](C)CC)C(C)C)C(C)C
# B4: peptide of SEQ ID NO: 45 (peptide)
# peptide: IVLSLDVPIKLK([AEEA-AEEA-γGlu-C18 diacid])QILLEQAKQK[Aib]LKAQAETNVRILERV-NH2
# modifications: N-terminus assumed
# SMILES: CC[C@H](C)[C@H](N)C(=O)N[C@H](C(=O)N[C@@H](CC(C)C)C(=O)N[C@@H](CO)C(=O)N[C@@H](CC(C)C)C(=O)N[C@@H](CC(=O)O)C(=O)N[C@H](C(=O)N1CCC[C@H]1C(=O)N[C@H](C(=O)N[C@@H](CCCCN)C(=O)N[C@@H](CC(C)C)C(=O)N[C@@H](CCCCNC(=O)COCCOCCNC(=O)COCCOCCNC(=O)CC[C@H](NC(=O)CCCCCCCCCCCCCCCCC(=O)O)C(=O)O)C(=O)N[C@@H](CCC(N)=O)C(=O)N[C@H](C(=O)N[C@@H](CC(C)C)C(=O)N[C@@H](CC(C)C)C(=O)N[C@@H](CCC(=O)O)C(=O)N[C@@H](CCC(N)=O)C(=O)N[C@@H](C)C(=O)N[C@@H](CCCCN)C(=O)N[C@@H](CCC(N)=O)C(=O)N[C@@H](CCCCN)C(=O)NC(C)(C)C(=O)N[C@@H](CC(C)C)C(=O)N[C@@H](CCCCN)C(=O)N[C@@H](C)C(=O)N[C@@H](CCC(N)=O)C(=O)N[C@@H](C)C(=O)N[C@@H](CCC(=O)O)C(=O)N[C@H](C(=O)N[C@@H](CC(N)=O)C(=O)N[C@H](C(=O)N[C@@H](CCCNC(=N)N)C(=O)N[C@H](C(=O)N[C@@H](CC(C)C)C(=O)N[C@@H](CCC(=O)O)C(=O)N[C@@H](CCCNC(=N)N)C(=O)N[C@H](C(N)=O)C(C)C)[C@@H](C)CC)C(C)C)[C@@H](C)O)[C@@H](C)CC)[C@@H](C)CC)C(C)C)C(C)C
# B5: peptide of SEQ ID NO: 140 (peptide)
# peptide: IVLSLD[dV]PIKLK([AEEA-AEEA-γGlu-C18 diacid])QILLEQARQK[Aib]QRAQAEKNKRILERV-NH2
# modifications: N-terminus assumed
# SMILES: CC[C@H](C)[C@H](N)C(=O)N[C@H](C(=O)N[C@@H](CC(C)C)C(=O)N[C@@H](CO)C(=O)N[C@@H](CC(C)C)C(=O)N[C@@H](CC(=O)O)C(=O)N[C@@H](C(=O)N1CCC[C@H]1C(=O)N[C@H](C(=O)N[C@@H](CCCCN)C(=O)N[C@@H](CC(C)C)C(=O)N[C@@H](CCCCNC(=O)COCCOCCNC(=O)COCCOCCNC(=O)CC[C@H](NC(=O)CCCCCCCCCCCCCCCCC(=O)O)C(=O)O)C(=O)N[C@@H](CCC(N)=O)C(=O)N[C@H](C(=O)N[C@@H](CC(C)C)C(=O)N[C@@H](CC(C)C)C(=O)N[C@@H](CCC(=O)O)C(=O)N[C@@H](CCC(N)=O)C(=O)N[C@@H](C)C(=O)N[C@@H](CCCNC(=N)N)C(=O)N[C@@H](CCC(N)=O)C(=O)N[C@@H](CCCCN)C(=O)NC(C)(C)C(=O)N[C@@H](CCC(N)=O)C(=O)N[C@@H](CCCNC(=N)N)C(=O)N[C@@H](C)C(=O)N[C@@H](CCC(N)=O)C(=O)N[C@@H](C)C(=O)N[C@@H](CCC(=O)O)C(=O)N[C@@H](CCCCN)C(=O)N[C@@H](CC(N)=O)C(=O)N[C@@H](CCCCN)C(=O)N[C@@H](CCCNC(=N)N)C(=O)N[C@H](C(=O)N[C@@H](CC(C)C)C(=O)N[C@@H](CCC(=O)O)C(=O)N[C@@H](CCCNC(=N)N)C(=O)N[C@H](C(N)=O)C(C)C)[C@@H](C)CC)[C@@H](C)CC)[C@@H](C)CC)C(C)C)C(C)C
# B6: peptide of SEQ ID NO: 131 (peptide)
# peptide: IVLSLD[dV]PIKLK([AEEA-AEEA-γGlu-C18 diacid])QILLEQERQK[Aib]QRQQAEKNKQILAQV-NH2
# modifications: N-terminus assumed
# SMILES: CC[C@H](C)[C@H](N)C(=O)N[C@H](C(=O)N[C@@H](CC(C)C)C(=O)N[C@@H](CO)C(=O)N[C@@H](CC(C)C)C(=O)N[C@@H](CC(=O)O)C(=O)N[C@@H](C(=O)N1CCC[C@H]1C(=O)N[C@H](C(=O)N[C@@H](CCCCN)C(=O)N[C@@H](CC(C)C)C(=O)N[C@@H](CCCCNC(=O)COCCOCCNC(=O)COCCOCCNC(=O)CC[C@H](NC(=O)CCCCCCCCCCCCCCCCC(=O)O)C(=O)O)C(=O)N[C@@H](CCC(N)=O)C(=O)N[C@H](C(=O)N[C@@H](CC(C)C)C(=O)N[C@@H](CC(C)C)C(=O)N[C@@H](CCC(=O)O)C(=O)N[C@@H](CCC(N)=O)C(=O)N[C@@H](CCC(=O)O)C(=O)N[C@@H](CCCNC(=N)N)C(=O)N[C@@H](CCC(N)=O)C(=O)N[C@@H](CCCCN)C(=O)NC(C)(C)C(=O)N[C@@H](CCC(N)=O)C(=O)N[C@@H](CCCNC(=N)N)C(=O)N[C@@H](CCC(N)=O)C(=O)N[C@@H](CCC(N)=O)C(=O)N[C@@H](C)C(=O)N[C@@H](CCC(=O)O)C(=O)N[C@@H](CCCCN)C(=O)N[C@@H](CC(N)=O)C(=O)N[C@@H](CCCCN)C(=O)N[C@@H](CCC(N)=O)C(=O)N[C@H](C(=O)N[C@@H](CC(C)C)C(=O)N[C@@H](C)C(=O)N[C@@H](CCC(N)=O)C(=O)N[C@H](C(N)=O)C(C)C)[C@@H](C)CC)[C@@H](C)CC)[C@@H](C)CC)C(C)C)C(C)C
# Molecular target: rat CRF2R α receptor (rat, UniProt P47866 20-411)
# Sequence (P47866 20-411): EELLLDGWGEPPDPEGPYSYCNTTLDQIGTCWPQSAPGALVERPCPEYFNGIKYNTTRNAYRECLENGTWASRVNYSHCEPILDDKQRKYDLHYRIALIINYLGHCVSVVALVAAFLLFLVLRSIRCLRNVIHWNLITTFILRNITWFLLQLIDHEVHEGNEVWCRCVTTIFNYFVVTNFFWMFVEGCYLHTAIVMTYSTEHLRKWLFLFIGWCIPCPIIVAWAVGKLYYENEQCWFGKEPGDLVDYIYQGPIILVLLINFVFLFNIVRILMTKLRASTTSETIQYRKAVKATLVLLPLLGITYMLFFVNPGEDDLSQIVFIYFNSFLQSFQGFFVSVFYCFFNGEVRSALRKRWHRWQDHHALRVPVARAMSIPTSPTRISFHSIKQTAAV
# Assay: cell-based or functional assay
row,Binder,"EC50 [nM], 0% HSA (cAMP, A7R5 cells) [nM]"
1,B1,0.2
2,B2,1.14
3,B3,5.29
4,B4,47.3
5,B5,0.1
6,B6,0.39
